Results from US7943340B2, “Fungal dipeptidyl peptidase IV (DPPIV) enzyme for reagent use” (priority 2003, dated 2011).
Entries after “also recorded” stand apart in the source; their conditions may differ.

What was measured:
denatured casein = experiment: Digestion of full-length polypeptide chain (denatured casein); type: biochemical; details: partially purified, in the presence of a trypsin-like endoprotease from the P. pastoris expression system
Ala-proNPY = experiment: Digestion of Ala-proNPY with ruLAP2; type: biochemical; details: overnight 37° C.
Description: The digested material was isolated by RP-HPLC and characterized by ESI-MS. […] The same result is obtained at an 1:[…] ratio. Digestion halts when the enzyme reaches a Xaa-Pro-motif, which in case of proNPY is Tyr-Pro. Conditions of incubation were the same as for Gly-Ser-proNPY.

[1] = test system: gliadin 14 mer PQPQLPYPQPQLPY; type: biochemical, wheat; details: 4 h, 37° C., 1 mM CoCl2, pH7.2
gliadin 33 mer = experiment: Digestion of gliadin 33 mer (RP-HPLC, ESI-MS); type: biochemical, wheat; details: within 4 h
[2] = Aminopeptidase activity assay with fluorogenic aminoacyl-AMC substrates; type: biochemical
Description: (§1) Aminopeptidase activity was determined using different fluorogenic aminoacyl-4-methylcoumaryl-7-amide derivatives of peptides and the internally quenched fluorogenic substrate Lys(Abz)-Pro-Pro-pNA for specific determination of aminopeptidase P activity. Stockel et al, Adv Exp. Med. Biol. 421:31-35 (1997). All substrates were from Bachem (Bubendorf, Switzerland). Substrate stock solutions were prepared at 0.1 M according to the recommendations of the manufacturer and stored at −20° C. The reaction mixture contained a concentration of 5 mM substrate and enzyme preparation (between 56 and 2,662 ng per assay depending on the cleavage activity of each enzyme for the substrates) in 25 μl of 50 mM Tris-HCl buffer adjusted at the optimal pH for each LAP (between 7 and 8). After incubation at 37° C. for 60 min, the reaction was terminated by adding 5 μl of glacial acetic acid and the reaction mixture was diluted with 3.5 ml of water. The released 7-amino-4-methylcoumarin (AMC) was measured using a spectrofluorophotometer (Perkin Elmer LS-5 fluorometer, Zurich, Switzerland) at an excitation wavelength of 370 nm and an emission wavelength of 460 nm. A standard curve made with synthetic AMC was used to assess the released AMC. The released diprolyl-p-nitroanilide was measured at an excitation wavelength of 310 nm and an emission wavelength of 410 nm. The LA activities were expressed in mnoles of released AMC or pNA/min/μg protein.
Table 15 details the hydrolytic activity of different LAPs toward various aminoacyl-MCA comparison (%) to Leu-MCA used as a standard.

[3] = Aminopeptidase P activity assay; type: biochemical; details: substrate Lys(Abz)-Pro-Pro-pNA, 5 mM, 37° C., 60 min
Description: as §1

B1: ruLAP2: T. rubrum leucine aminopeptidase, 495 amino acid residues (SEQ ID NO: 3) (protein, listed as Trichophyton rubrum)
chain: MKSQLLSLAVAVTTISQGVVGQEPFGWPFKPMVTQDDLQNKIKLKDIMAGVEKLQSFSDAHPEKNRVFGGNGHKDTVEWIYNEIKATGYYDVKKQEQVHLWSHAEAALNANGKDLKASAMSYSPPASKIMAELVVAKNNGCNATDYPANTQGKIVLVERGVCSFGEKSAQAGDAKAAGAIVYNNVPGSLAGTLGGLDKRHVPTAGLSQEDGKNLATLVASGKIDVTMNVISLFENRTTWNVIAETKGGDHNNVIMLGAHSDSVDAGPGINDNGSGSIGIMTVAKALTNFKLNNAVRFAWWTAEEFGLLGSTFYVNSLDDRELHKVKLYLNFDMIGSPNFANQIYDGDGSAYNMTGPAGSAEIEYLFEKFFDDQGIPHQPTAFTGRSDYSAFIKRNVPAGGLFTGAEVVKTPEQVKLFGGEAGVAYDKNYHRKGDTVANINKGAIFLNTRAIAYAIAEYARSLKGFPTRPKTGKRDVNPQYSKMPGGGCGHHTVFM
digestion of denatured casein (denatured casein): sequentially digest a full-length polypeptide chain, such as denatured casein
removal of N-terminal alanine from Ala-proNPY (Ala-proNPY): almost totally removed
digestion of the 14 mer [1]: not digested; also recorded: results only in the cleavage of the N-terminal Proline
partial degradation of the 33 mer (gliadin 33 mer): less than 50%
hydrolysis of Leu-AMC [2]: efficiently hydrolyzed
hydrolytic activity toward Ala-AMC in comparison (%) to Leu-MCA ([2]; substrate Ala-AMC, 5 mM, 37° C., 60 min): 33.3%
hydrolytic activity toward Arg-AMC in comparison (%) to Leu-MCA ([2]; substrate Arg-AMC, 5 mM, 37° C., 60 min): 1.9%
hydrolytic activity toward Asn-AMC in comparison (%) to Leu-MCA ([2]; substrate Asn-AMC, 5 mM, 37° C., 60 min): 114.6%
hydrolytic activity toward Asp-AMC in comparison (%) to Leu-MCA ([2]; substrate Asp-AMC, 5 mM, 37° C., 60 min): 3.8%
hydrolytic activity toward Cys-AMC in comparison (%) to Leu-MCA ([2]; substrate Cys-AMC, 5 mM, 37° C., 60 min): 14.9%
hydrolytic activity toward Gln-AMC in comparison (%) to Leu-MCA ([2]; substrate Gln-AMC, 5 mM, 37° C., 60 min): 49.9%
hydrolytic activity toward Glu-AMC in comparison (%) to Leu-MCA ([2]; substrate Glu-AMC, 5 mM, 37° C., 60 min): 3.7%
hydrolytic activity toward Gly-AMC in comparison (%) to Leu-MCA ([2]; substrate Gly-AMC, 5 mM, 37° C., 60 min): 3.3%
hydrolytic activity toward Gly-Pro-AMC in comparison (%) to Leu-MCA ([2]; substrate Gly-Pro-AMC, 5 mM, 37° C., 60 min): 7.2%
hydrolytic activity toward His-AMC in comparison (%) to Leu-MCA ([2]; substrate His-AMC, 5 mM, 37° C., 60 min): 0.6%
hydrolytic activity toward Hyp-AMC in comparison (%) to Leu-MCA ([2]; substrate Hyp-AMC, 5 mM, 37° C., 60 min): 14.2%
hydrolytic activity toward Ile-AMC in comparison (%) to Leu-MCA ([2]; substrate Ile-AMC, 5 mM, 37° C., 60 min): 6.4%
hydrolytic activity toward Leu-AMC in comparison (%) to Leu-MCA used as a standard ([2]; substrate Leu-AMC (standard), 5 mM, 37° C., 60 min): 100.0%
hydrolytic activity toward Lys-AMC in comparison (%) to Leu-MCA ([2]; substrate Lys-AMC, 5 mM, 37° C., 60 min): 4.6%
hydrolytic activity toward Met-AMC in comparison (%) to Leu-MCA ([2]; substrate Met-AMC, 5 mM, 37° C., 60 min): 119.7%
hydrolytic activity toward Phe-AMC in comparison (%) to Leu-MCA ([2]; substrate Phe-AMC, 5 mM, 37° C., 60 min): 17.1%
hydrolytic activity toward Pro-AMC in comparison (%) to Leu-MCA ([2]; substrate Pro-AMC, 5 mM, 37° C., 60 min): 21.4%
hydrolytic activity toward Pyr-AMC in comparison (%) to Leu-MCA ([2]; substrate Pyr-AMC, 5 mM, 37° C., 60 min): 0.0%
hydrolytic activity toward Ser-AMC in comparison (%) to Leu-MCA ([2]; substrate Ser-AMC, 5 mM, 37° C., 60 min): 26.1%
hydrolytic activity toward Thr-AMC in comparison (%) to Leu-MCA ([2]; substrate Thr-AMC, 5 mM, 37° C., 60 min): 0.9%
hydrolytic activity toward Val-AMC in comparison (%) to Leu-MCA ([2]; substrate Val-AMC, 5 mM, 37° C., 60 min): 4.8%
hydrolytic activity toward Lys(Abz) Pro-PropNA in comparison (%) to Leu-MCA [3]: 0.0%
